{"source": "patent US12123876B2", "about": "“Antibody binding to HEG1 and use of the antibody for detection and treatment of mesothelioma” (Kanagawa Prefectural Hospital Organization, priority 2016, dated 2024)", "molecules": {"B1": {"name": "SKM9-2 antibody: mouse monoclonal IgG1 kappa antibody binding glycosylated HEG1; heavy chain SEQ ID NO: 2, light chain SEQ ID NO: 4 (antibody, listed as Mus musculus)", "heavy": "MGWSSIILFLVATTTGVHSQVQLQQPGAELVRPGASVKLSCKASGFSFTTYWITWVKQRPGQGLEWIGMIHPSDSETRLSQTFKDKATLTVDKSSNTAYMQFSSPTSEDSAVYYCVRDFDVWGAGTTVTVSSAKTTPPSVYPLAPGSAAQTNSMVTLGCLVKGYFPEPVTVTWNSGSLSSGVHTFPAVLQSDLYTLSSSVTVPSSTWPSETVTCNVAHPASSTKVDKKIVPRDCGCKPCICTVPEVSSVFIFPPKPKDVLTITLTPKVTCVVVDISKDDPEVQFSWFVDDVEVHTAQTQPREEQFNSTFRSVSELPIMHQDWLNGKEFKCRVNSAAFPAPIEKTISKTKGRPKAPQVYTIPPPKEQMAKDKVSLTCMITDFFPEDITVEWQWNGQPAENYKNTQPIMDTDGSYFVYSKLNVQKSNWEAGNTFTCSVLHEGLHNHHTEKSLSHSPGK", "light": "MKLPVRLLVLMFWIPASISDVLMTQTPLSLPVSLGDQASISCRSSQNIVHNNGNTYLGWYLQKPGQSPKLLIFKVSNRFSGVPDRFSGSGSGTDFTLKISRVEAEDLGVYYCFQGSHIPRTFGGGTRLEIKRADAAPTVSIFPPSSEQLTSGGASVVCFLNNFYPKDINVKWKIDGSERQNGVLNSWTDQDSKDSTYSMSSTLTLTKDEYERHNSYTCEATHKTSTSPIVKSFNRNEC"}}, "test_system": "healthy tissues without any apparent lesion", "test": "Immunohistological staining of normal tissues", "parameters": "species or system human", "experimental": "AMeX-fixed cell precipitates or formalin-fixed tissues were paraffin-embedded to prepare thin sections. Each of the sections was fixed to a microscope slide, and subjected to deparaffinization and dehydration with xylene and ethanol, followed by activation of an antigen under different conditions. Each section was treated with 3% hydrogen peroxide for 5 minutes to deactivate endogenous peroxidase, and then washed with PBS and blocked with 0.5% casein for 10 minutes. After 100 μL of a solution containing a primary antibody was added to each section and treated at room temperature for 2 hours, the section was washed with PBS and allowed to develop color by using a Histofine Simple Stain MAX-PO (Multi) ([…] BIOSCIENCE INC.), Ventana ultraView DAB universal kit (Roche Diagnostics K. K.), or the EnVision+kits. Each section was stained with hematoxylin and then dehydrated, and encapsulated with Malinol (MUTO PURE CHEMICALS CO., LTD.) to observe under a microscope. The conditions for activation of an antigen were as follows: at 98° C. for 40 minutes for calretinin, mesothelin, and the SKM9-2 antigen; and at 95° C. for 64 minutes for cytokeratin 5/6 (CK5/6), podoplanin, and Wilms' tumor gene product 1 (WT-1). The following activation solutions were used: 10 mM Tris buffer (pH 9.0) containing 1 mM ethylenediamine tetraacetate (EDTA) for calretinin, CK5/6, and podoplanin; and 10 mM citrate buffer (pH 6.0) containing 0.1% TWEEN® 20 (polyethylene glycol sorbitan monolaurate, polyoxyethylenesorbitan monolaurate) for WT-1, mesothelin, and the SKM9-2 antigen. The following primary antibodies were used: a rabbit anti-calretinin polyclonal antibody (PAD:DC8) (Life Technologies Japan Ltd., Tokyo, Japan) for calretinin; a mouse anti-cytokeratin 5,6 monoclonal antibody (D5/16B4) ([…] BIOSCIENCE INC.) for CK5/6; a mouse anti-human mesothelin monoclonal antibody (5B2) (Leica Microsystems, Inc., Bannockburn, IL) for mesothelin; a mouse anti-podoplanin monoclonal antibody (D2-40) (Roche Diagnostics K. K.) for podoplanin; and a mouse anti-human WT-1 monoclonal antibody (6F-H2) (Roche Diagnostics K. K.) for WT-1.\nIn addition, the reactivity of the SKM9-2 antibody with normal tissues was examined by immunohistological staining. Immunostaining was performed by using the SKM9-2 antibody for healthy tissues without any apparent lesion."}
{"molecule": "B1", "values": [{"measurement": "Number of positive cases/number of samples", "setting": "Bladder and ureter", "value": "0/5"}, {"measurement": "Number of positive cases/number of samples", "setting": "Blood vessel, *Some cells were positive", "value": "*5/8"}, {"measurement": "Number of positive cases/number of samples", "setting": "Bronchus", "value": "0/12"}, {"measurement": "Number of positive cases/number of samples", "setting": "Cerebrum", "value": "0/29"}, {"measurement": "Number of positive cases/number of samples", "setting": "Duodenum", "value": "0/2"}, {"measurement": "Number of positive cases/number of samples", "setting": "Esophagus", "value": "0/2"}, {"measurement": "Number of positive cases/number of samples", "setting": "Gallbladder", "value": "0/5"}, {"measurement": "Number of positive cases/number of samples", "setting": "Kidney", "value": "0/10"}, {"measurement": "Number of positive cases/number of samples", "setting": "Large intestine", "value": "0/6"}, {"measurement": "Number of positive cases/number of samples", "setting": "Liver", "value": "0/8"}, {"measurement": "Number of positive cases/number of samples", "setting": "Lung", "value": "0/23"}, {"measurement": "Number of positive cases/number of samples", "setting": "Lymph node", "value": "0/4"}, {"measurement": "Number of positive cases/number of samples", "setting": "Mammary gland", "value": "0/5"}, {"measurement": "Number of positive cases/number of samples", "setting": "Muscle", "value": "0/4"}, {"measurement": "Number of positive cases/number of samples", "setting": "Myocardium", "value": "0/12"}, {"measurement": "Number of positive cases/number of samples", "setting": "Ovary", "value": "0/4"}, {"measurement": "Number of positive cases/number of samples", "setting": "Pancreas", "value": "0/10"}, {"measurement": "Number of positive cases/number of samples", "setting": "Pericardium", "value": "1/1"}, {"measurement": "Number of positive cases/number of samples", "setting": "Peritoneum", "value": "0/2"}, {"measurement": "Number of positive cases/number of samples", "setting": "Pleura", "value": "0/5"}, {"measurement": "Number of positive cases/number of samples", "setting": "Prostate", "value": "0/10"}, {"measurement": "Number of positive cases/number of samples", "setting": "Stomach", "value": "0/3"}, {"measurement": "Number of positive cases/number of samples", "setting": "Testicular serosa", "value": "0/1"}, {"measurement": "Number of positive cases/number of samples", "setting": "Testis", "value": "1/5"}, {"measurement": "Number of positive cases/number of samples", "setting": "Thyroid", "value": "0/5"}, {"measurement": "Reactivity with normal tissue cells", "setting": "normal mesothelial cells other than pericardial mesothelial cells", "value": "Negative"}, {"measurement": "Reactivity with normal tissue cells", "setting": "pericardial mesothelial cells", "value": "positive image"}, {"measurement": "Reactivity with normal tissue cells", "setting": "seminiferous tubule, one case for the testis", "value": "positive"}, {"measurement": "Reactivity with normal tissue cells", "setting": "vascular endothelial cells", "value": "positive image"}]}
